B1: SPATS1 (parent)
chain: GRKKYDIDPRNGIPKLTPGDNPYM
B2: POMT2 (parent)
chain: VLRSRIRFIHLVTGCVLGSSGKVL
B3: APBB1IP (parent)
chain: ADPVLDLPLPPPPPEPLSQVSMWD

Variants of: B1
Assay: protein stability index of a GFP-peptide fusion (GPS, HEK-293T) (PSI 1-6); higher = more stable
Settings: c terminus: a fixed tail appended
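Note: lentivirally expressed fusions sorted by FACS into six bins by GFP to DsRed ratio, PSI derived from sequencing read proportions per bin multiplied by bin number.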

Protein stability index, by site and new letter:
K4: L 2.91 | S 3.83 | R 3.19 | Q 3.23 | W 3.03 | N 3.88 | H 3.2 | F 2.62 | T 3.48 | P 3.52 | G 3.71 | M 3.5 | Y 3.22 | A 3.38 | I 3.33 | E 4.1 | D 3.83 | V 3.29 | C 2.81
I7: L 3.39 | H 3.81 | Y 3.45 | E 4.5 | M 2.98 | S 4.25 | P 3.71 | A 3.53 | W 2.91 | Q 4.17 | N 3.86 | T 3.75 | C 3.93 | K 4.19 | D 4.21 | R 4.22 | G 4.08 | F 3.11 | V 3.83
K3: M 3.2 | C 2.29 | S 3.25 | R 3.27 | H 3.67 | L 3.19 | W 2.91 | E 3.79 | G 3.53 | P 3.29 | Y 2.77 | F 2.83 | A 3.2 | V 3.67 | Q 3.8 | T 3.73 | N 3.32 | I 3.39 | D 4.24
G1: I 2.66 | Q 3.52 | P 3.51 | F 2.88 | R 3.93 | N 3.54 | D 3.85 | A 3.48 | M 3.12 | S 3.65 | E 3.96 | T 3.4 | L 2.96 | W 2.78 | Y 3.31 | C 2.83 | H 3.25 | K 3.25 | V 3.68
R10: I 3.57 | G 3.68 | M 3.03 | V 2.8 | E 4.19 | W 2.56 | K 3.92 | A 3.48 | D 4.41 | T 3.81 | C 3.77 | H 3.4 | N 3.23 | S 3.65 | L 3.53 | Q 4.14 | P 3.29 | Y 3.1 | F 2.7
P9: I 3.69 | G 3.52 | D 3.99 | S 3.85 | C 3.72 | N 3.49 | H 3.79 | R 3.74 | Y 2.99 | L 3.24 | T 3.62 | M 3.28 | F 2.8 | K 3.27 | Q 3.67 | V 3.36 | W 2.52 | A 3.44 | E 4.19
R2: W 2.73 | V 3.73 | M 3.37 | Y 3.15 | I 3.25 | C 3.3 | F 3.4 | G 3.39 | P 3.73 | A 3.51 | E 4.15 | L 3.12 | Q 3.59 | D 4.13 | T 3.15 | S 3.66 | H 3.85 | N 3.44 | K 3.61
D8: A 3.02 | S 3.33 | H 2.82 | M 3.18 | L 3.16 | W 2.68 | E 3.72 | K 3.14 | F 2.84 | Y 2.68 | V 3.08 | Q 3.83 | I 3.08 | R 3.08 | G 2.93 | T 3.56 | N 3.12 | C 3.1 | P 3.42
N11: A 3.05
Y5: D 4.64 | T 4.11 | E 4.86 | V 4.04 | C 4.08 | Q 4.27 | W 2.92 | K 4.23 | S 4.36 | H 3.88 | G 4.44 | P 3.38 | I 3.4 | L 4.43 | F 3.51 | N 3.93 | M 3.65 | A 4.14 | R 4.07
D6: H 3.35 | P 3.49 | T 3.16 | G 3.51 | R 3.11 | N 3.36 | C 2.89 | M 3.01 | Y 3.12 | V 2.52 | E 3.4 | F 2.51 | Q 2.94 | K 3.33 | I 2.57 | A 3.26 | S 3.4 | W 2.38 | L 2.84

Variants of: B2
Assay: as above
Settings: c terminus: a fixed tail appended

Protein stability index of substitutions, site by site:
L17: A 2.77 | M 2.42 | Q 1.08 | P 1.74 | D 3.16 | Y 4.34 | R 2.35 | G 3.47 | W 3.74 | S 2.9 | I 2.28 | V 2.1 | H 2.75 | F 1.62
G21: L 3.1 | H 3.14 | C 3.88 | T 2 | R 2.47 | A 2.99 | W 2.96 | P 2.65 | M 3.38 | F 2.53 | V 2.17 | Q 3.44 | D 3.45 | E 3.64 | I 1.98 | N 2.47 | S 3.83
C15: K 3.31 | N 1.4 | R 2.13 | V 4.18 | W 2.95 | T 1.4 | S 3.04 | Y 3.56 | P 2.12 | M 2.21
G18: A 2.35 | E 2.45 | K 2 | M 2.78 | T 2.14 | S 3.06 | I 2.37 | R 2.35 | L 2.69 | V 1.38 | N 4.13 | D 1.67 | C 2.32
S19: W 2.66 | R 2.41 | F 2.63 | K 1.67 | A 1.93 | L 1.78 | N 2.73 | C 2.51 | T 3.6 | D 3.66 | I 2.59 | G 1.99 | P 3.18 | M 3.45 | V 2.73
V23: Y 2.47 | C 2.37 | D 3.41 | M 2.32 | G 3.42 | E 3.48 | K 2.21 | R 1.46 | Q 3.61 | P 3.61 | F 1.77
L24: W 4.21 | I 4.08 | Y 2.18 | R 2.92 | G 3.89 | E 3.25 | S 2.75 | M 2.42 | D 2.33 | N 1.89 | H 3.1
V16: Q 2.89 | K 3.78 | P 4.02 | Y 3.11 | I 1.6 | E 2.4 | N 3.21 | L 3.58 | W 2.43 | C 2.73 | G 2.39 | F 1.63 | M 3.73 | R 4.75 | H 3.17 | D 2.73
K22: W 3.35 | L 2.69 | F 2.53 | A 2.25 | S 2.57 | D 3.31 | C 2.73 | Y 2.74 | P 1.99 | H 2.37 | V 3.02
S20: G 2.08 | M 1.28 | R 2.82 | V 1.85 | I 1.78 | D 2.12 | C 3.22 | H 2.64 | W 2.12 | Y 2.86 | Q 3.58 | L 2.12 | P 1.69 | A 3.46 | F 1.43 | E 1.99 | T 3.42

Variants of: B3
Assay: as above
Settings: c terminus: a fixed tail appended

Protein stability index, by site and new letter:
P13: W 3.8 | K 4.6 | R 4.37 | E 4.96 | V 3.84
P11: V 4.43 | E 4.69 | K 4.69
